Source: PMC8980801 (2022)
One block for each molecule: values may come before it.

Tests used:
[1] = target: FLAG-Fzd4-3C-sGFP1–10-PDZ (mouse | not stated) (UniProt Q61088); assay: SEC; FLAG-Fzd4-sGFP1–10 and FLAG-Fzd4-sGFP11 coexpressed in Sf9, solubilised in DDM, M1 anti-FLAG eluate on Superose 6 to separate dimers from monomers; total protein compared with GFP fluorescence
[2] = target: T1, Fzd4–LRP6 heterodimer in biotinylated nanodiscs (mouse | human, UniProt Q61088 42-537; O75581 20-1439); assay: BLI
T1 chain 1: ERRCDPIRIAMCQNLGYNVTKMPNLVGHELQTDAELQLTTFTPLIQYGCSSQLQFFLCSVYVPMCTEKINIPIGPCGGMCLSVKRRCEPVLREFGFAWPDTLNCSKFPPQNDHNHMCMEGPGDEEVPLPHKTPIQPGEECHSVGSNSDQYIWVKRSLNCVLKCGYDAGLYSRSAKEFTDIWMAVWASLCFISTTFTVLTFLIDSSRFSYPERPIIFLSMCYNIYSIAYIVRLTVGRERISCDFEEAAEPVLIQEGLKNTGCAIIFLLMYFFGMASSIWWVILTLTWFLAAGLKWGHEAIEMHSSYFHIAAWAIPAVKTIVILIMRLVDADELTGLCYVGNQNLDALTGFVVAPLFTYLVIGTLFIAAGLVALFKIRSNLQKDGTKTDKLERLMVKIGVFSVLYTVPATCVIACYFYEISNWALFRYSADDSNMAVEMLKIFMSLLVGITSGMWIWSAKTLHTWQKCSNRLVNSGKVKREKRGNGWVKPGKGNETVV
T1 chain 2: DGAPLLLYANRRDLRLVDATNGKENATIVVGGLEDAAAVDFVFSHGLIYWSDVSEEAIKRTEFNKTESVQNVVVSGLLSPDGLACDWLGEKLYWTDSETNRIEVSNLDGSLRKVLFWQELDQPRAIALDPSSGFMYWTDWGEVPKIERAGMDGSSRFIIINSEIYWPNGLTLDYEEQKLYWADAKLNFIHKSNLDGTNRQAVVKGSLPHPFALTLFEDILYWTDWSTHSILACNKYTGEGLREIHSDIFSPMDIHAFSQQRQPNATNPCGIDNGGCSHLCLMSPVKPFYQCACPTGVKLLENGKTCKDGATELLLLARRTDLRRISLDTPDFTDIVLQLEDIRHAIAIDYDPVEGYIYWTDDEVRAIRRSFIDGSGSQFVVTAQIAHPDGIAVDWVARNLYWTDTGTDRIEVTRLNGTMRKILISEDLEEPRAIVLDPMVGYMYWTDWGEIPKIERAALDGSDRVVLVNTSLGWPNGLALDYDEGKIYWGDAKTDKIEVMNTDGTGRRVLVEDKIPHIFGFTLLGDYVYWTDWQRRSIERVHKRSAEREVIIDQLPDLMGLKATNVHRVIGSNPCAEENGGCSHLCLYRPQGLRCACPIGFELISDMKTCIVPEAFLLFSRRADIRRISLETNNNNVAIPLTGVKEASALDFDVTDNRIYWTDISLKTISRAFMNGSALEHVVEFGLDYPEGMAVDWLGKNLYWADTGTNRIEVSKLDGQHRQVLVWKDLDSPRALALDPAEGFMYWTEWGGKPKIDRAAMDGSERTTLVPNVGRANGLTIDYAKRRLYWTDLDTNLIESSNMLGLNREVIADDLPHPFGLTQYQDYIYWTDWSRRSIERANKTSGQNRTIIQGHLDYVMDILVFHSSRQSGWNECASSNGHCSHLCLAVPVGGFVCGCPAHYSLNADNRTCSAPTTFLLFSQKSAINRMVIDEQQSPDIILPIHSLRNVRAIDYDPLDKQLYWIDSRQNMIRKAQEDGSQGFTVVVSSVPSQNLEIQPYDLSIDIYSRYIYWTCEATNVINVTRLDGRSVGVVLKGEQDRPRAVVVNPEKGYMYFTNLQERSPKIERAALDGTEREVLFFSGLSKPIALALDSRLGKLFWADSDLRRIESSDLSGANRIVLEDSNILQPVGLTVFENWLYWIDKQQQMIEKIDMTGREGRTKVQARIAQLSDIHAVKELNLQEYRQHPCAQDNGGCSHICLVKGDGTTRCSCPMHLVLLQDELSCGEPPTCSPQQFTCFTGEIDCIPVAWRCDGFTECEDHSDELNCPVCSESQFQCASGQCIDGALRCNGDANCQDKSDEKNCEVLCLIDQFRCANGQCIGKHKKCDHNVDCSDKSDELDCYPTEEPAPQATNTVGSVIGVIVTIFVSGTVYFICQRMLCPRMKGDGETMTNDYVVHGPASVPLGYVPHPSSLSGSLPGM

[3] = target: T2, LRP6 monomer in biotinylated nanodiscs (human, UniProt O75581 20-1439); assay: BLI
T2 chain: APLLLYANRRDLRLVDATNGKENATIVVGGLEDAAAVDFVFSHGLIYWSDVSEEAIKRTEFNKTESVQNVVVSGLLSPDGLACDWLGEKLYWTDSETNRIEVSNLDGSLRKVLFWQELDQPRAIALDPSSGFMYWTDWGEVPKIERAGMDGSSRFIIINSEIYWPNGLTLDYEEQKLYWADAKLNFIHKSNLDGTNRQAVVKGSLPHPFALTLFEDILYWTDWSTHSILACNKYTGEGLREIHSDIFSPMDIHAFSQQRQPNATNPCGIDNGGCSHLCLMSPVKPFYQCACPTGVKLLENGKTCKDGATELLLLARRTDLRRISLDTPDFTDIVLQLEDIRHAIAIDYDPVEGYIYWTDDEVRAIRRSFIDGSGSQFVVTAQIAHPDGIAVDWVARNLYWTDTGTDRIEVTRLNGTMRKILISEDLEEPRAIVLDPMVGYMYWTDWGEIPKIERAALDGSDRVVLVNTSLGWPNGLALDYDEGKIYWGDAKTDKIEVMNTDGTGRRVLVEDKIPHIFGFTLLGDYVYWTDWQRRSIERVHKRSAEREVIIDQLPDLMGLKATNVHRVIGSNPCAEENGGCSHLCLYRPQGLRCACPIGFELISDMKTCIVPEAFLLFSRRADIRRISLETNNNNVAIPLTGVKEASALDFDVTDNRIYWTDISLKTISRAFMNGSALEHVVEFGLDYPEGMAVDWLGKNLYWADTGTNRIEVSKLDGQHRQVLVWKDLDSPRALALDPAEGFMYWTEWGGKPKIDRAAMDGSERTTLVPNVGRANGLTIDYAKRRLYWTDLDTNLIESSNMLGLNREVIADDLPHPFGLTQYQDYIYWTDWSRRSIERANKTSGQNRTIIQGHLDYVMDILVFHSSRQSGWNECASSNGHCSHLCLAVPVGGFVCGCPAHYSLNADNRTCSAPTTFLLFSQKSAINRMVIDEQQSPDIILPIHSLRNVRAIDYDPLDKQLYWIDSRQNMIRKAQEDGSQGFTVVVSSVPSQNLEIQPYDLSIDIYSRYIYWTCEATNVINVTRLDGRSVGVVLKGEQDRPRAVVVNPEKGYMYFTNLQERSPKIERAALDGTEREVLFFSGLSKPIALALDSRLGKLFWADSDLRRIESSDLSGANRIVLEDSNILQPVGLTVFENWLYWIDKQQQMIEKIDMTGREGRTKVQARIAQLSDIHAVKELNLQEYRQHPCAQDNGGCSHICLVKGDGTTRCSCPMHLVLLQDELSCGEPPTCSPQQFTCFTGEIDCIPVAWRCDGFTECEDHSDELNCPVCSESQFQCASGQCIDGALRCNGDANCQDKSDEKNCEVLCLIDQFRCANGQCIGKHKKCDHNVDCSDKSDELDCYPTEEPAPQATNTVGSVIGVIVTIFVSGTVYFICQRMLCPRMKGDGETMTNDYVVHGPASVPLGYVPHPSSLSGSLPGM

[4] = target: T2, LRP6 monomer in biotinylated nanodiscs; assay: BLI; kinetic
[5] = target: Fzd4–LRP6 heterodimer in biotinylated nanodiscs (mouse | human) (UniProt Q61088); assay: BLI; biotinylated nanodiscs on streptavidin biosensors, 0-100 nM DKK1, empty discs subtracted, 25 °C, 20 mM Hepes pH 7.4, 150 mM NaCl, 1 mM EDTA, 1 mg/ml BSA; steady state
[6] = target: T3, Fzd4 homodimer in biotinylated nanodiscs (mouse, UniProt Q61088 42-537); assay: BLI; biotinylated nanodiscs on streptavidin biosensors, 0-10 nM MBP–Norrin, 3 h association, 25 °C, 20 mM Hepes pH 7.4, 150 mM NaCl, 1 mM EDTA, 1 mg/ml BSA; steady state
T3 chain: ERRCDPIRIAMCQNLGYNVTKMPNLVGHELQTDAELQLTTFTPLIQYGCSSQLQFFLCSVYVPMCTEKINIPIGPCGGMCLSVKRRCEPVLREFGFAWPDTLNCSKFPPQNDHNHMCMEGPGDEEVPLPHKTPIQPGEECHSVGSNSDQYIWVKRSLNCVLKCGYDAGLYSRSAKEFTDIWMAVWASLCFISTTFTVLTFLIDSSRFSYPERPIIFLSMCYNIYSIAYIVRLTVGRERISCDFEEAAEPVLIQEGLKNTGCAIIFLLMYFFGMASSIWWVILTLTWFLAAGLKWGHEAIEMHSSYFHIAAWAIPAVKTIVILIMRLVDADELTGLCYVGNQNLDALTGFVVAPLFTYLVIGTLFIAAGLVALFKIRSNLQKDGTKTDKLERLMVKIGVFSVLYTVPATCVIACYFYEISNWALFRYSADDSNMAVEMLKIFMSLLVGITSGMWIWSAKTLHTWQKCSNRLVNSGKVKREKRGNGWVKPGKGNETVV

[7] = target: T3, Fzd4 homodimer in biotinylated nanodiscs; assay: BLI
[8] = target: T1, Fzd4–LRP6 heterodimer in biotinylated …; assay: BLI; without Norrin
[9] = target: Fzd4–LRP6 heterodimer in biotinylated nanodiscs (mouse | human) (UniProt Q61088); assay: BLI; nanodiscs with 5% PIP2 on SMAP biosensors, 0.01 to 32 μM DEP, empty nanodiscs subtracted, 25 °C, 20 mM Hepes pH 7.4, 150 mM NaCl, 1 mM EDTA, 1 mg/ml BSA; steady state
[10] = target: Fzd4–LRP6 heterodimer in biotinylated nanodiscs, prebound to Norrin (mouse | human | not stated) (UniProt Q61088); assay: as above
[11] = target: T4, Fzd4–LRP6 heterodimer in biotinylated nanodiscs, prebound to Norrin (mouse | human | , UniProt Q61088 42-537; O75581 20-1439; Q00604 33-133); assay: BLI
[12] = target: T4, Fzd4–LRP6 heterodimer in biotinylated …; assay: BLI; remark: listed apart in the source
[13] = target: T1, Fzd4–LRP6 heterodimer in biotinylated …; assay: BLI; kinetic, without Norrin

B1: Dikkopf1 (DKK1) (ligand)
chain: TLNSVLNSNAIKNLPPPLGGAAGHPGSAVSAAPGILYPGGNKYQTIDNYQPYPCAEDEECGTDEYCASPTRGGDAGVQICLACRKRRKRCMRHAMCCPGNYCKNGICVSSDQNHFRGEIEETITESFGNDHSTLDGYSRRTTLSSKMYHTKGQEGSVCLRSSDCASGLCCARHFWSKICKPVLKEGQVCTKHRRKGSHGLEIFQRCYCGEGLSCRIQKDHHQASNSSRLHTCQRH
koff [2]: 0.0057 s⁻¹ | koff [3]: 0.012 s⁻¹ | Kd [4]: 16.7 nM | Kd [5]: 5.6 nM

B3: Dishevelled-2 (Dvl2) DEP domain (domain or fragment)
chain: GLSVHMDMASVTKAMAAPESGLEVRDRMWLKITIPNAFLGSDVVDWLYHHVEGFPERREARKYASGLLKAGLIRHTVNKITFSEQCYYVFGDLSG
koff [8]: 0.0095 s⁻¹ | Kd [9]: 220 nM | Kd [10]: 198 nM | koff [11]: 0.013 s⁻¹ | Kd [12]: 420 nM | Kd [13]: 260 nM

More lines, now with the values ahead:

percent of the expressed protein GFP dimerized [1]: 50%
Molecule: FLAG-Fzd4-3C-sGFP11-PDZ (Sf9) (from UniProt Q61088 42-537) (receptor)

Kd [6]: 0.46 nM | koff [7]: 0.00034 s⁻¹
B2: MBP–Norrin (ligand)
chain: DSDPRRCMRHHYVDSISHPLYKCSSKMVLLARCEGHCSQASRSEPLVSFSTVLKQPFRSSCHCCRPQTSKLKALRLRCSGGMRLTATYRYILSCHCEECNS
